Literature values, collected in PMC11335090.
pKd: −log10 of the molar value.

Target: AXL (Homo sapiens) (UniProt P30530)
UniProt P30530, sequence (P30530 26-451): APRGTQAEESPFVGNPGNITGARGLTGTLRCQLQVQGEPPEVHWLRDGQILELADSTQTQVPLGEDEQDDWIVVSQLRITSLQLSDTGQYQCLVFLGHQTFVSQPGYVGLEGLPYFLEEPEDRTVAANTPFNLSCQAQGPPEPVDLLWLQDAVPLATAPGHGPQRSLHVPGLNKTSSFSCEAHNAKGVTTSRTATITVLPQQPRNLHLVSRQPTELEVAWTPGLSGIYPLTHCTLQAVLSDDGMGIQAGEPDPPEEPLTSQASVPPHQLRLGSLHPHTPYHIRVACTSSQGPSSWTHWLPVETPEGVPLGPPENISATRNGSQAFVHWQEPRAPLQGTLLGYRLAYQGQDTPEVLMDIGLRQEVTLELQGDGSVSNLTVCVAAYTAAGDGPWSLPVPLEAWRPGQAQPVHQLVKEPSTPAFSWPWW

pKd: 10.49
Substance: GAS6 (from UniProt Q14393)
